Measured values: patent US20200062814A1

Key:
[1] = tested on: mouse IgG1 (Fc)-LAP-MMP-IFN
[2] = target: mouse IgG1 (Fc)-LAP-MMP-IFN; assay: cell-based or functional assay

Chain of recombinant MMP-1 (P03956 100-469): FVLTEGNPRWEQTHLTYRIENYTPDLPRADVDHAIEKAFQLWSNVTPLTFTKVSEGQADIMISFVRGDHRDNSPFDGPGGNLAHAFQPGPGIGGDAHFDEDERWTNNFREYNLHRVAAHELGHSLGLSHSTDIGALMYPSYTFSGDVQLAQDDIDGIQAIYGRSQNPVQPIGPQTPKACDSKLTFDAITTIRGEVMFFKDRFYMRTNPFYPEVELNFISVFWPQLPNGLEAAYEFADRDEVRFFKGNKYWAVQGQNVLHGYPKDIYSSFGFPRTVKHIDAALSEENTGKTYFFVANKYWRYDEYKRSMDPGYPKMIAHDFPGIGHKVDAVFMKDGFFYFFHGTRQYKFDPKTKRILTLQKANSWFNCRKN
Chain of mouse IgG1 (Fc)-LAP-MMP-IFN (chain, as listed by the source): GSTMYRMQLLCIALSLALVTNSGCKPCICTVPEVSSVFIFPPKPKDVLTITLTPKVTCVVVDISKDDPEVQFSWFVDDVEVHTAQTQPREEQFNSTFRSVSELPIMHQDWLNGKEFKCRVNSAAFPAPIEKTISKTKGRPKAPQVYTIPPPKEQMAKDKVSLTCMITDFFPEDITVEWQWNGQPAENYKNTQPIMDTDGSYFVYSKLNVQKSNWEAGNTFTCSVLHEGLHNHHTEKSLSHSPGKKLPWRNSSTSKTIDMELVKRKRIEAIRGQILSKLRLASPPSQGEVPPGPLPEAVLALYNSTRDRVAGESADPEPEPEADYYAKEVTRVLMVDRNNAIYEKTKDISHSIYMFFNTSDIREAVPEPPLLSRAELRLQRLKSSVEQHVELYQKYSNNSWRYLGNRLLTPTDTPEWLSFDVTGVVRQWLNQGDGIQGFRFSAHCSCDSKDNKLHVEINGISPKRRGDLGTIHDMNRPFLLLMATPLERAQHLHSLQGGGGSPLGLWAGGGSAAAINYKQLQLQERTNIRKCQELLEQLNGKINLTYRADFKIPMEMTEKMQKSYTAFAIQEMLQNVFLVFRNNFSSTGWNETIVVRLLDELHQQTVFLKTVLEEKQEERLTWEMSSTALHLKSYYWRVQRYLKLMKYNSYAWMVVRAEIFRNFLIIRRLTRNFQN

Row | Substance | IFN biological activity (U/ml) [1] [U/ml] | cleavage of Ig-LAP-IFN by MMP1 (western blot with anti-LAP antibodies after non-denaturing SDS-PAGE) [1] | Luciferase activity (viability of L929 cells after EMC virus infection) [2]
1 | recombinant MMP-1 | 30 | The molecular weight of the cleaved Ig-LAP corresponds to the expected size of about 160 kDa. | –
2 | recombinant MMP-1 (enzyme) | – | – | 5070
